Source: PMC10251477, “Doubly Constrained C-terminal of Roc (COR) Domain-Derived Peptides Inhibit Leucine-Rich Repeat Kinase 2 (LRRK2) Dimerization” (ACS Chemical Neuroscience, 2023)

Target: Purified full-length LRRK2 (UniProt Q5S007)
Assay: mass photometry; LRRK2 at 150 nM or 200 nM incubated with constrained peptide 1:7.5 for 30 min at 30 °C; 10 uL added to 10 uL buffer (50 mM HEPES, 150 mM NaCl, 5 mM MgCl2, 1 mM DTT, 0.1 mM GDP, 1% glycerol); Refeyn TwoMP; percentage of dimer from molecular weight
Settings: remark: other sources report otherwise

stoichiometry N: 2
Substance: Purified full-length LRRK2, Q5S007 1-2527
